The target of assay [1] is Allochromatium vinosum DsrC Cys100Ser (Allochromatium vinosum). Put plainly: SEC. On the technique in general: In gel filtration, larger molecules generally elute earlier.
For assay [2], the target named is Allochromatium vinosum DsrC, wild type, recombinant with amino-terminal His tag (Allochromatium vinosum). Put plainly: SEC.

The term stoichiometry N denotes a count of units in the complex or per binding partner. As for “Allochromatium vinosum DsrC Cys100Ser (natural protein)”, in assay [1], the stoichiometry N came to 2.

On to “Allochromatium vinosum DsrC, wild type, recombinant with amino-terminal His tag (natural protein)”, for which the stoichiometry N in assay [2] is 2.

Values taken from publication PMC2637153.
